Measured values taken from patent US20070123452A1, “Method of selecting novel immunosuppressant” (Astellas Pharma Inc., priority 2002, published 2007).

Assays:
N-CoR(RD3) = molecular target: T1, N-CoR(RD3) (Homo sapiens, UniProt O75376); test: Two-hybrid detection system for interaction of HDAC4 and N-CoR; type: cell-based; conditions: Jurkat cells; 22 hours after transfection
T1 construct: expressed in transfected cells; host or cells: Jurkat cells (ATCC, TIB-152)
T1 sequence (O75376 1005-1498): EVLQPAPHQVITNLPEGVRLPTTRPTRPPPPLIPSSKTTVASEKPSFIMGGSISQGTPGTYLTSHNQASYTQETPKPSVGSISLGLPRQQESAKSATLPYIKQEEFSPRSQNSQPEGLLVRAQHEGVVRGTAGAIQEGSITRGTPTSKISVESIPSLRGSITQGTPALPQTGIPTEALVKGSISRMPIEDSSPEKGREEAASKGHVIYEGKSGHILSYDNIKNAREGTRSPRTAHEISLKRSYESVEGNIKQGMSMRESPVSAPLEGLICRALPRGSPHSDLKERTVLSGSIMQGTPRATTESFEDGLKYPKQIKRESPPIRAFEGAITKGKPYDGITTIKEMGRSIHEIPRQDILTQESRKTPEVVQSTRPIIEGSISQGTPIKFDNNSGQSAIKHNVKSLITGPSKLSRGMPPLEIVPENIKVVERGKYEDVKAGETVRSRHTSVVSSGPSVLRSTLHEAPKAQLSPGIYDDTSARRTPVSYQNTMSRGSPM
Description: First, from the literature information in Mol. Cell, 2002, Vol. 9, p.45-57, the site corresponding to the RD3 sequence of human N-COR was determined (1005-1498a.a.). The human N-COR CDS base sequence was obtained from GenBank accession number AF044209, and human N-CoR(RD3) cDNA was amplified from human-lung-derived cDNA by the PCR method. The primers used were RD3-Bam-FW (SEQ ID NO:82) and RD3-Not-RV (SEQ ID NO:83) below. For the base sequence of human N-CoR(RD3), see SEQ ID NO:21; for the amino acid sequence encoded by the base sequence of human N-CoR (RD3), see SEQ ID NO:22. […]
Subsequently, 10 μg of pG5-Luc (Promega), 3 μg of BND and 3 μg of pACT, or 10 μg of pG5-Luc, 3 μg of pBND-N-CoR (RD3) and 3 μg of pACT-HDAC4, or 10 μg of pG5-Luc, 3 μg of pBND-N-CoR(RD3) and 3 μg of pACT-HDAC4 (H863L), were mixed respectively, and each mixture was transfected to 1×10^7 Jurkat cells (ATCC, TIB-152) by the electroporation method (BIO-RAD, Gene Pulser II, voltage 300 V, charge 975 μF, 400 μL). Twenty-two hours after transfection, luciferase activity in the cells was measured according to the manual of the Bright-Glo Luciferase Assay System (Promega) using a multi-label counter (1420 MULTILABEL COUNTER ARVO SX, WALLAC).

[1] = test system: GATA-1 transcription (human GATA-1 promoter); test: GATA-1 reporter gene assay in HEL cells; type: cell-based; conditions: 10 μg expression plasmid
Description: Using 15 μg of pGL3-HSI-IE Pro and 10 μg of a plasmid for the expression of various HDACs or HDAC variants, 8.75×10^6 HEL cells (accession number JCRB0062, JCRB) were transformed by the electroporation method (BIO-RAD, Gene Pulser II, voltage 1750 V, charge 10 μF, 365 μL). After transformation, 2 mL of 10% FBS RPMI 1640 was added, and this mixture was dispensed to a 96-well white plate in a ratio of 50 μL/well. After cultivation under conditions of 37° C., 5% CO2 and saturated humidity for 3 hours, 10% FBS RPMI 1640 medium was added at 50 μL/well. After cultivation under conditions of 37° C., 5% CO2 and saturated humidity for 8 hours, luciferase activity in cells were measured according to the manual of the Bright-Glo Luciferase Assay System, and GATA-1 transcriptional activity was measured using a multi-label counter.
A mixture of four kinds of HDAC4-targeted siRNA, i.e., siGENE HDAC4 SMARTpool (manufactured by Dharmacon Inc., marketed by B-Bridge international Inc., code number M-003497-00-05), or Non-specific Control Duplex IX (47% GC content) (manufactured by Dharmacon Inc., marketed by B-Bride international Inc., code number D-001206-09-20), and pGL3 IL2 Pro43 were transfected to Jurkat cells by the electroporation method using the same conditions as those mentioned above, and IL-2 transcriptional activity was measured. […]

B1: HDAC4 dominant negative variant (H863L): HDAC4 variant with H863L mutation, amino acid sequence SEQ ID NO:6, expressed from plasmid (protein, listed as Homo sapiens)
chain: MSSQSHPDGLSGRDQPVELLNPARVNHMPSTVDVATALPLQVAPSAVPMDLRLDHQFSLPVAEPALREQQLQQELLALKQKQQIQRQILIAEFQRQHEQLSRQHEAQLHEHIKQQQEMLAMKHQQELLEHQRKLERHRQEQELEKQHREQKLQQLKNKEKGKESAVASTEVKMKLQEFVLNKKKALAHRNLNHCISSDPRYWYGKTQHSSLDQSSPPQSGVSTSYNHPVLGMYDAKDDFPLRKTASEPNLKLRSRLKQKVAERRSSPLLRRKDGPVVTALKKRPLDVTDSACSSAPGSGPSSPNNSSGSVSAENGIAPAVPSIPAETSLAHRLVAREGSAAPLPLYTSPSLPNITLGLPATGPSAGTAGQQDTERLTLPALQQRLSLFPGTHLTPYLSTSPLERDGGAAHSPLLQHMVLLEQPPAQAPLVTGLGALPLHAQSLVGADRVSPSIHKLRQHRPLGRTQSAPLPQNAQALQHLVIQQQHQQFLEKHKQQFQQQQLQMNKIIPKPSEPARQPESHPEETEEELREHQALLDEPYLDRLPGQKEAHAQAGVQVKQEPIESDEEEAEPPREVEPGQRQPSEQELLFRQQALLLEQQRIHQLRNYQASMEAAGIPVSFGGHRPLSRAQSSPASATFPVSVQEPPTKPRFTTGLVYDTLMLKHQCTCGSSSSHPEHAGRIQSIWSRLQETGLRGKCECIRGRKATLEELQTVHSEAHTLLYGTNPLNRQKLDSKKLLGSLASVFVRLPCGGVGVDSDTIWNEVHSAGAARLAVGCVVELVFKVATGELKNGFAVVRPPGHHAEESTPMGFCYFNSVAVAAKLLQQRLSVSKILIVDWDVHHGNGTQQAFYSDPSVLYMSLLRYDDGNFFPGSGAPDEVGTGPGVGFNVNMAFTGGLDPPMGDAEYLAAFRTVVMPIASEFAPDVVLVSSGFDAVEGHPTPLGGYNLSARCFGYLTKQLMGLAGGRIVLALEGGHDLTAICDASEACVSALLGNELDPLPEKVLQQRPNANAVRSMEKVMEIHSKYWRCLQRTTSTAGRSLIEAQTCENEEAETVTAMASLSVGVKPAEKRPDEEPMEEEPPL
modifications: Dominant negative mutant (H863L) of human histone deacetylase-4 (HDAC4) gene
- interaction with N-CoR(RD3), GAL4 transcription activation (luciferase) (N-CoR(RD3)): did not interact with N-CoR(RD3)
- GATA-1 transcriptional activity (luciferase) [1]: GATA-1 transcription suppression was not observed
